For assay [1], the target named is T1, recombinant human G-CSF receptor (R&D systems 381-GR-050/CF) (human, UniProt Q99062 25-333).
T1 construct: granulocyte colony-stimulating factor receptor, human, recombinant; As recalled, this catalogue item is a soluble extracellular form of the receptor; also called rhG-CSFR; granulocyte colony-stimulating factor receptor; source: bought: R&D systems 381-GR-050/CF
T1 sequence: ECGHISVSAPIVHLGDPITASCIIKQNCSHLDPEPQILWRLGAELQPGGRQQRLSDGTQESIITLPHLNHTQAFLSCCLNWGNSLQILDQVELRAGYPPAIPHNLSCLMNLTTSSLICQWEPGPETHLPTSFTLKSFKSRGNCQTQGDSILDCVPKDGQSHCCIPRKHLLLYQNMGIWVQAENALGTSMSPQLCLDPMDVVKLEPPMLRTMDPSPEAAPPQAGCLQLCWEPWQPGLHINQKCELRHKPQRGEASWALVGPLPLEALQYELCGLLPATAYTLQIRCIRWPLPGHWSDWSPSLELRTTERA
The experiment in a line: SPR; Biacore X100, multi-cycle kinetics; G-CSFR immobilised on a CM5 chip by amine coupling; analytes in 10 mM HEPES pH 7.4, 150 mM NaCl, 3.4 mM EDTA, 0.005% Tween-20; 25°C, 30 uL/min; 1:1 model, ka and kd from a linear fit of kobs against concentration. As to conditions: both partners purified. A general note: In SPR one partner is held on a chip, and binding of the other changes the refractive index at the surface.

Assay [2] has as its target T1, recombinant human G-CSF receptor (R&D …). The description is as above. Conditions: both partners purified. The source holds these as a separate data set.

B1: recombinant human granulocyte colony-stimulating factor (USP RS Filgrastim) (ligand, UniProt P09919-2 31-204, looked up)
chain: TPLGPASSLPQSFLLKCLEQVRKIQGDGAALQEKLCATYKLCHPEELVLLGHSLGIPWAPLSSCPSQALQLAGCLSQLHSGLFLYQGLLQALEGISPELGPTLDTLQLDVADFATTIWQQMEELGMAPALQPTQGAMPAFASAFQRRAGGVLVASHLQSFLEVSYRVLRHLAQP
notes: granulocyte colony-stimulating factor, human, as filgrastim; printed size 19 kDa; The SPR methods name filgrastim; also called rhG-CSF; G-CSF; source: bought: USP RS Filgrastim, Sigma-Aldrich 1270435
One may read the Kd as a measure of binding affinity in units of concentration. The koff is a measure of how fast the partners let go of each other. The term kon denotes a measure of how fast the partners come together. As for B1, in assay [1], the Kd was 1.1 nM, the koff was 0.00049 s⁻¹ and the on-rate constant (kon) is 300000 M⁻¹ s⁻¹. Moreover, in assay [2], the Kd was 1.4 nM.
